This note sets out measurements from PMC11574245, “Transplacental SARS-CoV-2 protein ORF8 binds to complement C1q to trigger fetal inflammation” (The EMBO Journal, 2024).

This experiment deals with T1, C1q Human protein (human, UniProt P02745 23-245; P02746 28-253; P02747 29-245).
T1 construct: human complement C1q subcomponent subunit A (A chain of the C1q complex); human complement C1q subcomponent subunit B (B chain of the C1q complex); human complement C1q subcomponent subunit C (C chain of the C1q complex); The methods call it recombinant human C1q; also called human C1q; purified human C1q protein; source: bought: Complement Technology (Cat. A099); copies: 6 + 6 + 6
T1 sequence (P02745 23-245, chain 1 of 3): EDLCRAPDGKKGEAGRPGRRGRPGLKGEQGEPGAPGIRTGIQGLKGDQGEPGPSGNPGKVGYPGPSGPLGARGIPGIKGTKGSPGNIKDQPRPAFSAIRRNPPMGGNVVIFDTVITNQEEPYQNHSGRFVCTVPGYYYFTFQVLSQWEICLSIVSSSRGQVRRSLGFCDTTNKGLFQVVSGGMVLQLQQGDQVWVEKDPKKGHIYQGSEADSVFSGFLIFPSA
T1 sequence (P02746 28-253, chain 2 of 3): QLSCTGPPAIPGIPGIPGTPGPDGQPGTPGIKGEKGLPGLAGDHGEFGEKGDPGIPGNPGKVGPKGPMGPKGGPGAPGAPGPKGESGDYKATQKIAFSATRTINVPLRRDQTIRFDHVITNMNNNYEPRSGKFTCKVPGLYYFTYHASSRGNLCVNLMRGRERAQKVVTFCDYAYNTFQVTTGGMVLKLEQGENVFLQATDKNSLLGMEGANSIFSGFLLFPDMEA
T1 sequence (P02747 29-245, chain 3 of 3): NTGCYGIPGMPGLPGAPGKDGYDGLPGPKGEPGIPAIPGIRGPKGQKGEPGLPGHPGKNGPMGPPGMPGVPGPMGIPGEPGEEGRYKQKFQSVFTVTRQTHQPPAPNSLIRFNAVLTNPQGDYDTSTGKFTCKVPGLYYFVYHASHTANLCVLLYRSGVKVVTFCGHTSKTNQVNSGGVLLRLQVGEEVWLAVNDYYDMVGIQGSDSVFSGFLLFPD
The experiment in a line: ELISA; plates coated with each of 28 ORF8 peptides (1 mM in carbonate buffer 50 mM pH 9.6, overnight 2-8 °C); human C1q (5, 10, 25 or 100 nM in 3% BSA/TBST) 2 h at room temperature; detected with sheep polyclonal anti-C1Q-HRP. As to conditions: both partners purified. (In an ELISA, binding on a coated surface is turned into a signal by an enzyme label.)
Regarding SLVVRCSFYEDFLEY [SARS-CoV-2 ORF8 peptide #25 (S97-Y111)], the binding result is on record as “binds”. Turning to CPIHFYSKWYIRVGA [SARS-CoV-2 ORF8 peptide #10 (C37-A51)], the binding result is “binds”. As for YIDIGNYTVSCLPFT [SARS-CoV-2 ORF8 peptide #19 (Y73-T87)], the entry is “binds”.
